{"source": "patent US11262348B2", "about": "“Cell-based assays for detection of antibodies or other factors that neutralize uptake of lysosomal enzymes” (BIOMARIN PHARMACEUTICAL INC., priority 2015, dated 2022)", "molecules": {"B1": {"name": "Recombinant human N-acetylgalactosamine-6-sulfatase (protein, UniProt P34059 27-522, looked up)", "N-acetylgalactosamine-6-sulfat …": "APQPPNILLLLMDDMGWGDLGVYGEPSRETPNLDRMAAEGLLFPNFYSANPLCSPSRAALLTGRLPIRNGFYTTNAHARNAYTPQEIVGGIPDSEQLLPELLKKAGYVSKIVGKWHLGHRPQFHPLKHGFDEWFGSPNCHFGPYDNKARPNIPVYRDWEMVGRYYEEFPINLKTGEANLTQIYLQEALDFIKRQARHHPFFLYWAVDATHAPVYASKPFLGTSQRGRYGDAVREIDDSIGKILELLQDLHVADNTFVFFTSDNGAALISAPEQGGSNGPFLCGKQTTFEGGMREPALAWWPGHVTAGQVSHQLGSIMDLFTTSLALAGLTPPSDRAIDGLNLLPTLLQGRLMDRPIFYYRGDTLMAATLGQHKAHFWTWTNSWENFRQGIDFCPGQNVSGVTTHNLEDHTKLPLIFHLGRDPGERFPLSFASAEYQEALSRITSVVQQHQEALVPAQPQLNVCNWAVMNWAPPGCEKLGKCLTPPESIPKKCLWSH", "notes": "enzyme replacement therapy (elosulfase alfa) for the treatment of MPS IVA"}, "B2": {"name": "Alexa488-rhGALNS (conjugate, UniProt P34059 27-522, looked up)", "N-acetylgalactosamine-6-sulfat …": "B1 N-acetylgalactosamine-6-sulfat …", "modifications": "Alexa488 label"}}, "key": {"[1]": {"test": "Elosulfase alfa pharmacokinetics in individuals with Morquio A syndrome", "assay_type": "in vivo, human", "settings": "QOW and QW cohorts, week 22 PK vs week 24 NAb titer", "source_text": "Effect of NAb Titer on Elosulfase Alfa Pharmacokinetics: In order to further explore the association between NAbs and pharmacokinetics, NAb titers from the functional NAb assay were compared to total clearance (CL) of drug after intravenous administration and elimination half-life (t1/2). Increased NAb titers were associated with prolonged t1/2 in both the QOW and QW cohorts (FIG. 12A).\nAntibodies that neutralize elosulfase alfa uptake through CI-M6PR may not exist at concentrations sufficient to prevent effective amounts of elosulfase alfa from reaching target tissues. Although NAbs that block uptake of drug are measureable in our cell-based NAb assay, this amount of NAbs may be insignificant relative to elosulfase alfa dose. This cell-based assay was designed to detect the lowest possible NAb concentrations, ideally prior to observed clinical effects. […] 53 (2014) 1137-1147]. […] 53 (2014) 1137-1147]. Although further investigation is needed, one aspect to the lack of neutralizing antibody effect on efficacy may be that rapid clearance of drug from plasma diminishes the rate of neutralizing antibody-elosulfase alfa complex formation. […] Scler. 15 (2009) 977-983]."}, "[2]": {"test": "NAb and TAb titers and positivity in individuals treated with elosulfase alfa (clinical study)", "assay_type": "in vivo, human", "procedure": "Samples from a 24 week study of rhGALNS (elosulfase alfa) treatment were assessed for NAb at baseline and weeks 2, 4, 8, 12, 16, 20 and 24. rhGALNS was infused at 2.0 mg/kg body weight in two dosing cohorts, weekly and every other week (QOW). Positive samples (FIG. 2A) show comparatively low NAb titers [wk 24 mean 52 (range 0 to 1,098) in the weekly group and 130 (range 0 to 1,659) in the QOW group] relative to anti-rhGALNS total antibody (TAb) titers [wk 24 mean 167,737 (range 0 to 1.77×10^6) in the weekly group and 190,901 (range 810 to 1.77×10^6) in the QOW group] (FIG. 2B).\nNAb titers and clinical outcomes To compare the functional NAb assay with the previously reported ELISA-based CI-M6PR binding assay for detecting NAb in elosulfase alfa-treated individuals with Morquio A syndrome [Schweighardt et al., supra], serum samples from the clinical trial were reanalyzed with the cell-based assay. Sufficient serum-sample volumes were available for the majority (842/847 [99%]) of serum sample collection time points to obtain confirmed positive/negative results. The overall concordance was high (89%) between NAb positivity in the receptor binding assay and the cell-based assay. Furthermore, the concordance was consistent over the 24-week treatment period (FIG. 9A).\nTAb titers detected using the CI-M6PR binding assay reported previously [Schweighardt et al., supra] were compared to the time course for NAb titer development detected with the functional NAb assay (FIG. 9B). Titers of both TAbs and NAbs increased rapidly during the first 8 weeks of treatment then plateaued from week 8 to week 24 in both the QOW and QW treatment groups (FIG. 9B). Although the frequency of drug administration had minimal effect on TAb and NAb titers at week 24, the QW treatment group appeared to have higher titers of both TAbs and NAbs in the initial 4 weeks of treatment. Subjects in both the QOW and QW treatment groups developed different NAb titer courses over 24 weeks."}, "[3]": {"settings": "after 22 weeks, cited from earlier work; for half-life (t1/2): plasma"}, "[4]": {"settings": "cited from earlier work; for proportion of patients with NAb positivity: long-term extension study"}, "[5]": {"test_system": "Jurkat cells", "test": "Cell-based flow cytometry assay of Alexa488-rhGALNS uptake (screening assay, % SI)", "parameters": "species or system human", "settings": "for NHPS (% SI): no AbPC; for MFI: Alexa488-rhGALNS 0.4 μg/mL, 20% pooled human serum", "procedure": "Cell uptake of rhGALNS is measured using flow cytometry to determine the amount of fluorophore-conjugated rhGALNS taken up by Jurkat cells. Jurkat cells are a non-adherent human T cell line that express CI-MPR, which binds and targets rhGALNS to the lysosome. rhGALNS neutralizing antibodies (NAb) are detected in samples by a decrease in fluorophore-conjugated rhGALNS uptake (calculated as % inhibition) that exceeds the screening cut point (SCP).\nFor a 1:1 dilution, 60 μL per well of controls were added in duplicate or in quadruplicate for 2 sets into the appropriate wells. Similarly, for a 1:1 dilution of sample, 60 μL per well of patient screening samples were added into the appropriate wells. For a 1:1 dilution for the confirmation assay, 60 μL per well of patient confirmation samples were added in duplicate into the corresponding wells. The plate was covered, wrapped in foil and allowed to incubate overnight for 14 to 20 hours at 2-8° C.\nAssay: Prior to the sample incubation step, the cell plates were removed from the CO2 incubator and observed to ensure the cells were healthy and viable. […] After the incubation was completed, the cells were washed in PBS by centrifuging the plate for 6 min at 310×g in a tabletop centrifuge at 14 to 18° C., repeated two to five times as appropriate. After the last wash, the plate was removed from the centrifuge, the cell pellet resuspended in 100 μL viability stain (red fluorescent reactive dye 1:1000 dilution) and tested for viability. Once viability testing was complete, the cells were centrifuged 6 min at 310×g in a tabletop centrifuge at 14 to 18° C.\nPercent Signal Inhibition (% SI) is calculated as [% SI=1—mean median fluorescence intensity (MFI) of sample/mean MFI of control×100]. Confirmatory assay data were analyzed as recovery ratio, defined as mean confirmatory assay MFI of sample/mean screening assay MFI of sample. The titer was calculated as the interpolated dilution factor at which the sample crossed the titer cut point determined by linear regression analysis (Microsoft Excel)."}, "[6]": {"test": "Efficacy in clinical study: 6MWT distance and urine keratan sulfate (uKS)", "assay_type": "in vivo, human", "settings": "24-week treatment period, QOW and QW", "procedure": "The primary efficacy measure in the clinical study was the distance walked in a 6MWT, which provides a measure of endurance. Keratan sulfate, an rhGALNS substrate, was also measured in individuals' urine (uKS) to track the pharmacodynamic effect of treatment with elosulfase alfa. NAb titers detected with the functional NAb assay were plotted against the change from baseline to week 24 in 6MWT distance, and the percentage change in uKS from baseline. No association was observed between NAb titer and 6MWT (FIG. 11A) or NAb titer and uKS (FIG. 11B) in individuals dosed weekly or every 2 weeks."}, "[7]": {"test_system": "Jurkat cells", "test": "Confocal imaging of Alexa488-rhGALNS internalization and trafficking to lysosomes", "assay_type": "cell-based, human", "settings": "LysoTracker Red", "procedure": "Confocal Imaging: Internalization of Alexa488-rhGALNS and trafficking to lysosomes was confirmed by confocal microscopy by incubating cells from the functional NAb assay described in section 2.3 with 50 nM LysoTracker Red (Molecular Probes) at 37° C. for 1 h. Cells were then washed with serum-free RPMI-1640 and mounted with Prolong Gold Antifade Mountant with DAPI (Molecular Probes), sealed, and visualized using a Leica SP8 confocal microscope (Leica Microsystems). Confocal Z-stacks were acquired using a 63× Plan-Apo objective with 4× zoom and LASX software (Leica Microsystems). Z-stacks were rendered in 3-D and exported using Volocity software version 6.3 (PerkinElmer)."}}, "note": "Like-named read-outs stand apart in the source and are kept apart here. Marks after values point to notes of the source that are not given here.", "data": [{"molecule": "B1", "values": [{"measurement": "CL with increased NAb titers (trend)", "setting": "[1]", "result": "decreased"}, {"measurement": "t1/2 with increased NAb titers", "setting": "[1]", "result": "prolonged"}, {"measurement": "mean NAb titer", "setting": "[2]; at 12 weeks", "result": "118±271"}, {"measurement": "NAb titer, mean", "setting": "[2]; wk 24, 2.0 mg/kg QOW group", "result": 130}, {"measurement": "anti-rhGALNS total antibody (TAb) titer, mean", "setting": "[2]; wk 24, 2.0 mg/kg QOW group", "result": "190,901"}, {"measurement": "NAb titer, mean", "setting": "[2]; wk 24, 2.0 mg/kg weekly group", "result": 52}, {"measurement": "anti-rhGALNS total antibody (TAb) titer, mean", "setting": "[2]; wk 24, 2.0 mg/kg weekly group", "result": "167,737"}, {"measurement": "half-life (t1/2)", "setting": "[3]; 2.0 mg/kg QOW", "result": 19, "unit": "min"}, {"measurement": "plasma Cmax", "setting": "[3]; 2.0 mg/kg QOW", "result": 2.6, "unit": "µg/mL"}, {"measurement": "half-life (t1/2)", "setting": "[3]; 2.0 mg/kg QW", "result": 36, "unit": "min"}, {"measurement": "plasma Cmax", "setting": "[3]; 2.0 mg/kg QW", "result": 4.0, "unit": "µg/mL"}, {"measurement": "development of drug-specific total antibodies (TAb)", "setting": "[4]; clinical study, treated individuals", "result": "all individuals"}, {"measurement": "proportion of patients with NAb positivity", "setting": "[4]; week 36", "result": 85.9, "unit": "%"}, {"measurement": "proportion of patients with NAb positivity", "setting": "[4]; week 120", "result": 66.0, "unit": "%"}, {"measurement": "concentration of unlabeled rhGALNS that reduced Alexa488-rhGALNS uptake", "setting": "[5]; NPS without AbPC", "result": "≥ 0.22", "unit": "µg/mL"}, {"measurement": "rhGALNS concentration the assay can tolerate before interference with Alexa488-rhGALNS uptake", "setting": "[5]; drug tolerance", "result": "up to 0.22 μg/mL"}, {"measurement": "highest neat concentration of rhGALNS at which the low and high PC-spiked samples screened positive", "setting": "[5]; highest concentration tested", "result": 2.00, "unit": "µg/mL"}, {"measurement": "NHPS (% SI)", "setting": "[5]; unlabeled elosulfase alfa 0.0027 μg/mL", "result": "−10.84", "unit": "% SI"}, {"measurement": "NHPS (% SI)", "setting": "[5]; unlabeled elosulfase alfa 0.008 μg/mL", "result": 3.79, "unit": "% SI"}, {"measurement": "NHPS (% SI)", "setting": "[5]; unlabeled elosulfase alfa 0.025 μg/mL", "result": "−7.21", "unit": "% SI"}, {"measurement": "NHPS (% SI)", "setting": "[5]; unlabeled elosulfase alfa 0.074 μg/mL", "result": "−5.58", "unit": "% SI"}, {"measurement": "NHPS (% SI)", "setting": "[5]; unlabeled elosulfase alfa 0.22 μg/mL", "result": 8.00, "unit": "% SI"}, {"measurement": "NHPS (% SI)", "setting": "[5]; unlabeled elosulfase alfa 0.67 μg/mL", "result": "26.94* % SI"}, {"measurement": "NHPS (% SI)", "setting": "[5]; unlabeled elosulfase alfa 2.00 μg/mL", "result": "55.42* % SI"}, {"measurement": "impact of NAb titers on efficacy (6MWT, uKS)", "setting": "[6]", "result": "no detrimental impact"}]}, {"molecule": "B2", "values": [{"measurement": "localization by confocal imaging", "setting": "[7]", "result": "co-localized with lysosomes"}, {"measurement": "MFI", "setting": "[5]; cells incubated at 4° C.", "result": "92.9±1.50"}, {"measurement": "MFI", "setting": "[5]; cells incubated at 37° C.", "result": "4425±98.6"}, {"measurement": "Kuptake", "setting": "[5]; Hanes-Woolf plot linear regression, dose-response 0 to 363.6 nM", "result": 46.3, "unit": "nM"}, {"measurement": "Kuptake", "setting": "[5]; Jurkat T cells, 4 hours incubation at 37° C.", "result": "approximately 5 μg/mL"}]}]}
